Biological target: HLA-A*02:01 (Homo sapiens, UniProt P04439, D140Y/D185E/D98H/E176V/E277Q/G131W/G231S/I119V/I121R/I166T/I218V/L300P/L318F/N151K/N90K/P208A/P217A/Q86G/Q94H/R138H/R169H/T345S)
Assay: MHC binding assay: UV-ligand exchange with β2m ELISA (peptide exchange yield)
Details: binding to HLA-A*02:01 evaluated by peptide exchange yield (UV-ligand exchange, β2m ELISA)
Text: Candidate peptides for T cell based therapies according to the present invention were further tested for their MHC binding capacity (affinity). The individual peptide-MHC complexes were produced by UV-ligand exchange, where a UV-sensitive peptide is cleaved upon UV-irradiation, and exchanged with the peptide of interest as analyzed. Only peptide candidates that can effectively bind and stabilize the peptide-receptive MHC molecules prevent dissociation of the MHC complexes. To determine the yield of the exchange reaction, an ELISA was performed based on the detection of the light chain (β2m) of stabilized MHC complexes. The assay was performed as generally described in Rodenko et al. (Rodenko et al., 2006).
96 well MAXISorp plates (NUNC) were coated over night with 2 ug/ml streptavidin in PBS at room temperature, washed 4× and blocked for 1 h at 37° C. in 2% BSA containing blocking buffer. Refolded HLA-A*02:01/MLA-001 monomers served as standards, covering the range of 15-500 ng/ml. Peptide-MHC monomers of the UV-exchange reaction were diluted 100 fold in blocking buffer. Samples were incubated for 1 h at 37° C., washed four times, incubated with 2 ug/ml HRP conjugated anti-β2m for 1 h at 37° C., washed again and detected with TMB solution that is stopped with […]. Absorption was measured at 450 nm. Candidate peptides that show a high exchange yield (preferably higher than 50%, most preferred higher than 75%) are generally preferred for a generation and production of antibodies or fragments thereof, and/or T cell receptors or fragments thereof, as they show sufficient avidity to the MHC molecules and prevent dissociation of the MHC complexes.

Peptide exchange | Substance
++ (≥20% = ++) | 113 (FLFLKEVKV; listed as Homo sapiens) [compound 113]
++ (≥20% = ++) | 114 (LLFPSDVQTL; listed as Homo sapiens) [compound 114]
++ (≥20% = ++) | 115 (ILHGEVNKV; listed as Homo sapiens) [compound 115]
++ (≥20% = ++) | 116 (ALLSSVAEA; listed as Homo sapiens) [compound 116]
++ (≥20% = ++) | 117 (TLLEGISRA; listed as Homo sapiens) [compound 117]
++ (≥20% = ++) | 119 (SLIEESEEL; listed as Homo sapiens) [compound 119]
++ (≥20% = ++) | 121 (ALYVQAPTV; listed as Homo sapiens) [compound 121]
+++ (≥50 = +++) | 122 (SIIDTELKV; listed as Homo sapiens) [compound 122]
+ (≥10% = +) | 123 (QTAPEEAFIKL; listed as Homo sapiens) [compound 123]
++ (≥20% = ++) | 124 (ALLLRLFTI; listed as Homo sapiens) [compound 124]
+++ (≥50 = +++) | 125 (AALEVLAEV; listed as Homo sapiens) [compound 125]
+++ (≥50 = +++) | 126 (QLREAFEQL; listed as Homo sapiens) [compound 126]
++ (≥20% = ++) | 128 (SILTNISEV; listed as Homo sapiens) [compound 128]
++ (≥20% = ++) | 129 (KMASKVTQV; listed as Homo sapiens) [compound 129]
+++ (≥50 = +++) | 130 (QLYGSAITL; listed as Homo sapiens) [compound 130]
+++ (≥50 = +++) | 131 (SLYPHFTLL; listed as Homo sapiens) [compound 131]

Peptide exchange | Substance
+++ (≥50 = +++) | 132 (ALLNNVIEV; listed as Homo sapiens) [compound 132]
++ (≥20% = ++) | 133 (FLDGRPLTL; listed as Homo sapiens) [compound 133]
++ (≥20% = ++) | 134 (SLYKSFLQL; listed as Homo sapiens) [compound 134]
+++ (≥50 = +++) | 136 (LLWDAPAKC; listed as Homo sapiens) [compound 136]
++ (≥20% = ++) | 137 (KLIYKDLVSV; listed as Homo sapiens) [compound 137]
++ (≥20% = ++) | 138 (GIINKLVTV; listed as Homo sapiens) [compound 138]
+++ (≥50 = +++) | 139 (IILENIQSL; listed as Homo sapiens) [compound 139]
+++ (≥50 = +++) | 140 (FLDSQITTV; listed as Homo sapiens) [compound 140]
++ (≥20% = ++) | 141 (NIDINNNEL; listed as Homo sapiens) [compound 141]
++ (≥20% = ++) | 142 (LLDAAHASI; listed as Homo sapiens) [compound 142]
+++ (≥50 = +++) | 143 (MLWESIMRV; listed as Homo sapiens) [compound 143]
+++ (≥50 = +++) | 144 (FLISQTPLL; listed as Homo sapiens) [compound 144]
+++ (≥50 = +++) | 145 (ALEEKLENV; listed as Homo sapiens) [compound 145]
++ (≥20% = ++) | 146 (VVAAHLAGA; listed as Homo sapiens) [compound 146]
+++ (≥50 = +++) | 147 (GLLSALENV; listed as Homo sapiens) [compound 147]
+++ (≥50 = +++) | 148 (YLILSSHQL; listed as Homo sapiens) [compound 148]

The next lines start with the substance.

Substance | Peptide exchange
84 (FLLEREQLL; listed as Homo sapiens) [compound 84] | ++++ (≥75% = ++++)
85 (KLLDKPEQFL; listed as Homo sapiens) [compound 85] | ++ (≥20% = ++)
86 (SLFSNIESV; listed as Homo sapiens) [compound 86] | +++ (≥50 = +++)
87 (KLLSLLEEA; listed as Homo sapiens) [compound 87] | +++ (≥50 = +++)
88 (LLLPLELSLA; listed as Homo sapiens) [compound 88] | +++ (≥50 = +++)
89 (SLAETIFIV; listed as Homo sapiens) [compound 89] | +++ (≥50 = +++)
90 (AILNVDEKNQV; listed as Homo sapiens) [compound 90] | ++ (≥20% = ++)
91 (LLPSIFLMV; listed as Homo sapiens) [compound 91] | ++ (≥20% = ++)
92 (RLFEEVLGV; listed as Homo sapiens) [compound 92] | ++++ (≥75% = ++++)
93 (RLYGYFHDA; listed as Homo sapiens) [compound 93] | ++ (≥20% = ++)
94 (YLDEVAFML; listed as Homo sapiens) [compound 94] | +++ (≥50 = +++)
95 (KLIDEDEPLFL; listed as Homo sapiens) [compound 95] | +++ (≥50 = +++)
96 (ALDTTRHEL; listed as Homo sapiens) [compound 96] | ++ (≥20% = ++)
97 (KLFEKSTGL; listed as Homo sapiens) [compound 97] | +++ (≥50 = +++)
98 (FVQEKIPEL; listed as Homo sapiens) [compound 98] | +++ (≥50 = +++)
99 (TLFGIQLTEA; listed as Homo sapiens) [compound 99] | +++ (≥50 = +++)
100 (ALQSFEFRV; listed as Homo sapiens) [compound 100] | +++ (≥50 = +++)
101 (SLLEVNEASSV; listed as Homo sapiens) [compound 101] | +++ (≥50 = +++)
102 (GLYPVTLVGV; listed as Homo sapiens) [compound 102] | +++ (≥50 = +++)
103 (YLADTVQKL; listed as Homo sapiens) [compound 103] | ++ (≥20% = ++)
105 (AMLASQTEA; listed as Homo sapiens) [compound 105] | ++ (≥20% = ++)
106 (VLLGSVVIFA; listed as Homo sapiens) [compound 106] | ++ (≥20% = ++)
107 (RVLPGQAVTGV; listed as Homo sapiens) [compound 107] | ++ (≥20% = ++)
108 (FIANLPPELKA; listed as Homo sapiens) [compound 108] | +++ (≥50 = +++)
109 (ILGSFELQL; listed as Homo sapiens) [compound 109] | +++ (≥50 = +++)
110 (QIQGQVSEV; listed as Homo sapiens) [compound 110] | ++ (≥20% = ++)
111 (AQLEGKLVSI; listed as Homo sapiens) [compound 111] | +++ (≥50 = +++)
112 (ILAQDVAQL; listed as Homo sapiens) [compound 112] | +++ (≥50 = +++)

Source: patent publication US10745460B2, “Peptides and combination of peptides for use in immunotherapy against various tumors” (Immatics Biotechnologies GmbH, priority 2015, dated 2020)
